From publication doi:10.1101/715409 (bioRxiv, 2019) come the findings set out here.

Sequences and labels used below:
B1: 6xHis Bud6_(1-141) (domain or fragment)
chain: MKMAVDDPTYGTPKIKRTASSSSSIETTVTKLLMSTKHLLQVLTQWSKGTTSGRLVSDAYVQLGNDFKVVSKFFMHAKVDMSDVGDVPMALRRVLEVTLREPPSDETLNKHLPKIREIIVTLLDKLKVKQAILKNMQQEHR
B2: GST fusion to Boi_(77-178) (domain or fragment)
chain: IEKPENLHKSPTQESGNSGVKYGNLNDSASNIGKVSSHQQENRYTSLKSTMSDIDKALEELRSGSVEQEVSKSPTRVPEVSTPQLQDEQTLIQEKTRNEENT

The target of experiment [1] is T1, GST fusion to Boi1 (1-203) (Saccharomyces cerevisiae, UniProt P38041 1-203).
T1 sequence: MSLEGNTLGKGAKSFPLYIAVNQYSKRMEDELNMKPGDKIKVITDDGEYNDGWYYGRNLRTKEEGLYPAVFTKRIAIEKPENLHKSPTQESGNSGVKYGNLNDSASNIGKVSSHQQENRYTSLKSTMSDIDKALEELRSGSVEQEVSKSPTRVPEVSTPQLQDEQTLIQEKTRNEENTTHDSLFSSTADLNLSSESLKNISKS
As to the kind of experiment: pull-down.

The experiment “6xHis Bud6_(1-141)” addresses B1. Nature of the experiment: pull-down.

As to B1, the binding result in experiment [1] is given as “binds”.

On to B2, for which, in the experiment with 6xHis Bud6_(1-141), the binding result is on record as “binds”.
